Test results reported in publication PMC8526979, “The predicted stem-loop structure in the 3′-end of the human norovirus antigenomic sequence is required for its genomic RNA synthesis by its RdRp” (The Journal of Biological Chemistry, 2021).

How the values were obtained:
[1] = target: T1, HuNV RdRp (His-RdRp; GII.P3 RdRp) (Norwalk-like virus, UniProt Q8JXI4); experiment: RNA synthesis, dsRNA product after S1 nuclease, native PAGE with SYBR Green II; type: biochemical
T1 construct: mature NS7 RdRp from ORF1 genome polyprotein, cDNA nt 3581-5113; N-terminal His6 tag (pET28b), E. coli ArcticExpress (DE3); 57 kDa by SDS-PAGE

[2] = system: His-RdRp (NS7, RNA-dependent RNA polymerase) (Human norovirus GII.P3_GII.3 U201 strain); experiment: competition; conditions: 50 mM Tris-HCl pH 7.4, 1.7% glycerol, 5 mM beta-mercaptoethanol, 0.5 ug/ul yeast RNA, 30 C 10 min, 20 ul; native PAGE at 4 C

Molecule | IC50 [1] | binding signal (% complex remaining) [2]
C[C@@]1(O)[C@H](O)[C@@H](COP(=O)(O)OP(=O)(O)OP(=O)(O)O)O[C@H]1n1ccc(N)nc1=O [2′CM-CTP, 2′-C-methylcytidine triphosphate] | 57 ± 20 µM | –
100AS RNA | – | 13.5
31AS RNA | – | 47.3
